Data on one molecule can be found in patent publication US20210063414A1, “METHODS FOR PREVENTING AND/OR TREATING BONE LOSS CONDITIONS BY MODULATING IRISIN” (Dana-Farber Cancer Institute, Inc., priority 2018, published 2021).

Assay in all cases: Crosslinking/co-immunoprecipitation/mass spectrometry (TMT quantitative proteomics) to identify irisin receptors
What all share (format): binding

Assay [1] addresses T1, MLO-Y4 cell surface proteins (Mus musculus, UniProt G3X9C2).
T1 construct: endogenous in cells; host or cells: MLO-Y4
T1 sequence (G3X9C2 1-266): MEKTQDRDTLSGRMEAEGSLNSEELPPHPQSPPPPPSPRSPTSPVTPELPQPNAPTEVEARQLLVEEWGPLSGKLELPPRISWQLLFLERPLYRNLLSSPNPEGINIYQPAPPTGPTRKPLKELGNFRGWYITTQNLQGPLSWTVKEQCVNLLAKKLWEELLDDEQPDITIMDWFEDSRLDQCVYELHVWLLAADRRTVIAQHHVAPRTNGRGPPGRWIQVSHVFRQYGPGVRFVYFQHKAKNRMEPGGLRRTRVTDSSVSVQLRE
As to conditions: co-precipitated protein Nccrp1 (FBX50_MOUSE). The method in brief:
(§1)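 Mouse MLO-Y4 cells were switched to serum-free FreeStyle medium for 4 h, chilled, then exposed to 10 nM His-tagged irisin (or adipsin as control) for 20 min. Cells were crosslinked with 1.5 mM DTSSP (30 min, ice), and bound proteins were pulled down on Ni-NTA and eluted with 250 mM imidazole. Eluates were separated by SDS-PAGE, trypsin-digested in gel, TMT 6-plex labelled and quantified by MS3-based LC-MS/MS on an Orbitrap Fusion Lumos.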

Assay [2] concerns the target T2, MLO-Y4 cell surface proteins (Mus musculus, UniProt P63038).
T2 construct: endogenous in cells; host or cells: MLO-Y4
As to conditions: co-precipitated protein Hspd1 (CH60_MOUSE). The method in brief:
as §1

In assay [3] the target is T3, MLO-Y4 cell surface proteins (Mus musculus, UniProt Q8R1I1).
T3 construct: endogenous in cells; host or cells: MLO-Y4
T3 sequence (Q8R1I1 1-64): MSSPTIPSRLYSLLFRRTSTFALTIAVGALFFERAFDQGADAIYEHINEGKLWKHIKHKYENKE
As to conditions: co-precipitated protein Uqcr10 (QCR9_MOUSE). The method in brief:
as §1

Assay [4] addresses T4, MLO-Y4 cell surface proteins (Mus musculus, UniProt Q921N7).
T4 construct: endogenous in cells; host or cells: MLO-Y4
T4 sequence (Q921N7 78-253): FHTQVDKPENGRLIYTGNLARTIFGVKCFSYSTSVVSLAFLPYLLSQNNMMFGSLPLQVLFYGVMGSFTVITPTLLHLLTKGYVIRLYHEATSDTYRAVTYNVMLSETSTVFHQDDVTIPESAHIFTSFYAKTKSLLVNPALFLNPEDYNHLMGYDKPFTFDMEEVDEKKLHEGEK
The conditions noted are these: co-precipitated protein Tmem70 (TMM70_MOUSE). The method in brief:
as §1

T2 sequence (P63038 27-573): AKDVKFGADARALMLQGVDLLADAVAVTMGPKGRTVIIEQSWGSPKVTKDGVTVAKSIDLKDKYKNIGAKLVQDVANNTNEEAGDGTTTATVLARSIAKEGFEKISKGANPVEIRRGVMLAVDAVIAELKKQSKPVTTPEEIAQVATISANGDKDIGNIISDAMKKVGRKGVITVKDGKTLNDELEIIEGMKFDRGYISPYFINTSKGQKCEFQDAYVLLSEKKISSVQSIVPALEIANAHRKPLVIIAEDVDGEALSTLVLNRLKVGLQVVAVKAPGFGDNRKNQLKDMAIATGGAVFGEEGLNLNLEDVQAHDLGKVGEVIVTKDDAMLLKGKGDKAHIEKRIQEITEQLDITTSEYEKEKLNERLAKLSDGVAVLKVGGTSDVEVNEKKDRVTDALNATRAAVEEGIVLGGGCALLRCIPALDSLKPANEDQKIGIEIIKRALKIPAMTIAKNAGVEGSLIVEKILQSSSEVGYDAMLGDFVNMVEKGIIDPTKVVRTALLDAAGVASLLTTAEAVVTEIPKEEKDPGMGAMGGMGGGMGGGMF

B1: irisin: secreted cleaved form of FNDC5; recombinant human/mouse irisin with C-terminal his tag produced in HEK293 cells (protein)
chain: DSPSAPVNVTVRHLKANSAVVSWDVLEDEVVIGFAISQQKKDVRMLRFIQEVNTTTRSCALWDLEEDTEYIVHVQAISIQGQSPASEPVLFKTPREAEKMASKNKDEVTMKE
modifications: left off: small tags and cut ends
notes: secreted cleaved form of FNDC5; recombinant human/mouse irisin with C-terminal his tag produced in HEK293 cells
For B1, the TMT signal-to-noise ratio in assay [1] is on record as 0; in assay [2], 2002.08; in assay [3], 125.477; in assay [4], 49.6598. For the same molecule, the “irisin/adipsin TMT signal-to-noise ratio” value in assay [1] was 0.000; in assay [2], 0.470; in assay [3], 0.516; in assay [4], 0.562.
